Substitutions are numbered along the chain they refer to. In names and notes the source's numbering stands.

B1: human UDP-glucose 6-dehydrogenase E161Q mutant (C-terminally truncated) (enzyme, UniProt O60701 1-467, looked up)
chain: MFEIKKICCIGAGYVGGPTCSVIAHMCPEIRVTVVDVNESRINAWNSPTLPIYEPGLKEVVESCRGKNLFFSTNIDDAIKEADLVFISVNTPTKTYGMGKGRAADLKYIEACARRIVQNSNGYKIVTEKSTVPVRAAESIRRIFDANTKPNLNLQVLSNPQFLAEGTAIKDLKNPDRVLIGGDETPEGQRAVQALCAVYEHWVPREKILTTNTWSSELSKLAANAFLAQRISSINSISALCEATGADVEEVATAIGMDQRIGNKFLKASVGFGGSCFQKDVLNLVYLCEALNLPEVARYWQQVIDMNDYQRRRFASRIIDSLFNTVTDKKIAILGFAFKKDTGDTRESSSIYISKYLMDEGAHLHIYDPKVPREQIVVDLSHPGVSEDDQVSRLVTISKDPYEACDGAHAVVICTEWDMFKELDYERIHKKMLKPAFIFDGRRVLDGLHNELQTIGFQIETIGKKVS
B2: human UDP-glucose 6-dehydrogenase T131S mutant (C-terminally truncated) (enzyme, UniProt O60701 1-467, looked up)
chain: B1 chain with T131S, Q161E
B3: human UDP-glucose 6-dehydrogenase N224A mutant (C-terminally truncated) (enzyme, UniProt O60701 1-467, looked up)
chain: B1 chain with Q161E, N224A
B4: human UDP-glucose 6-dehydrogenase K220A mutant (C-terminally truncated) (enzyme, UniProt O60701 1-467, looked up)
chain: B1 chain with Q161E, K220A
B5: human UDP-glucose 6-dehydrogenase D280A mutant (C-terminally truncated) (enzyme, UniProt O60701 1-467, looked up)
chain: B1 chain with Q161E, D280A
B6: human UDP-glucose 6-dehydrogenase E161Q mutant (thiohemiacetal intermediate) (enzyme, UniProt O60701 1-467, looked up)
chain: B1 chain
modifications: Cys276 covalently modified: Sγ bonded to C6 of the UDP-Glc-derived substrate (thiohemiacetal)

The first data set deals with the molecule itself. The data set is described as follows: SEC. (In general: Size exclusion chromatography separates by hydrodynamic size, large species first.)
B1: the stoichiometry N (usually the number of molecules, sites or subunits per partner or assembly) came out at 6.
On the same count and under the same terms, as for B2, the figure is 6; as for B3, 6; as for B4, 6.
Same read-out and setting: with B5 the figure was 6.

Another data set deals with the molecule itself. The data set is described as follows: crystal structure.
As to B6, the binding result is recorded as “binds”.

These data come from publication PMC3265891 (The Journal of Biological Chemistry, 2011).
